{"source": "patent US20210137977A1", "about": "(UNIVERSITY OF SOUTHERN CALIFORNIA, published 2021)", "key": {"BCMA": {"molecular_target": "T1, BCMA (human, UniProt Q02223 1-184)", "T1 construct": "whole, on cells; also called human BCMA; BCMA on L363 cells", "T1 sequence (looked up)": "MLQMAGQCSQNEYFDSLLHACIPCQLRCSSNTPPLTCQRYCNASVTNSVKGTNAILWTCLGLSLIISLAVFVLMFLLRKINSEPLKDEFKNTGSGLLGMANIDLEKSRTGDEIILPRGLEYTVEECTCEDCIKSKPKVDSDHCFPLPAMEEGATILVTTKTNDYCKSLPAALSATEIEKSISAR", "assay": "CAR stably expressed in BCMA-bearing L363 and U266 cell lines; detection reagent not named"}, "[1]": {"molecular_target": "T2, human MPL (Thrombopoietin Receptor) (human, UniProt P40238 26-635)", "T2 construct": "whole, on cells; also called MPL on HEL.92.1.7 cells", "T2 sequence (looked up)": "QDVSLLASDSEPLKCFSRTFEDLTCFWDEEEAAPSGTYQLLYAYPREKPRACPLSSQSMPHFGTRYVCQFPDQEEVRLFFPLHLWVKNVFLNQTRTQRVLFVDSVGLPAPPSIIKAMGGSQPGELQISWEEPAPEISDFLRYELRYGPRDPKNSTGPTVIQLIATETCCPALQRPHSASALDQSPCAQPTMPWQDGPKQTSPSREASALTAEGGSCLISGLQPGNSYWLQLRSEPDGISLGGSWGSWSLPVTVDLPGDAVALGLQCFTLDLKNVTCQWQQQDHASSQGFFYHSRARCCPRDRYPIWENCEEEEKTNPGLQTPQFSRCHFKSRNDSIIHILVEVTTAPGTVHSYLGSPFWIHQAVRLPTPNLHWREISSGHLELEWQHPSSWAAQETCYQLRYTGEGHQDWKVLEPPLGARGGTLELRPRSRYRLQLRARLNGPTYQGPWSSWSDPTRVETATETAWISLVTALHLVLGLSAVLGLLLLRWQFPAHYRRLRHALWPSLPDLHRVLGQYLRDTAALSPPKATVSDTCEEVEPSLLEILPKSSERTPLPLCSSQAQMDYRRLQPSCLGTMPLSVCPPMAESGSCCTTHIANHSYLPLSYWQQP", "assay": "CAR expressed in MPL-bearing HEL.92.1.7 cells; staining with MPL antibody (1.6.1) or 161-scFv-Nluc"}}, "data": [{"binder": "CD8SP-BCMA-huC13-F12-BBz (other, Second generation CAR (41BB, CD3z)) DIVLTQSPATLSLSPGDRATLSCRASESVTILGSHLIYWYQQKPGQAPRLLIQLASNVQTGIPARFSGSGSRTDFTLTISSLEPEDFAVYYCLQSRTIPRTFGQGTKLEIKRGGGGSGGGGSGGGGSQVQLVQSGSELKKPGESVKISCKASGYTFTHYSMNWVRQAPGQGLEWMGRINTETGEPLYADDFKGRFVFSLDTSASTAYLQISSLKAEDTAVYYCSNDYLYSLDYWGQGTLVTVSSTRAKPTTTPAPRPPTPAPTIASQPLSLRPEACRPAAGGAVHTRGLDFACDIYIWAPLAGTCGVLLLSLVITLYCKRGRKKLLYIFKQPFMRPVQTTQEEDGCSCRFPEEEEGGCELRVKFSRSADAPAYQQGQNQLYNELNLGRREEYDVLDKRRGRDPEMGGKPRRKNPQEGLYNELQKDKMAEAYSEIGMKGERRRGKGHDGLYQGLSTATKDTYDALHMQALPPR", "values": [{"measurement": "binding result", "setting": "BCMA", "result": "binds"}]}, {"binder": "CD8SP-MPL-hu-161-2-BBz (other, Second generation CAR from a humanized MPL antibody (41BB, CD3z); Entry includes the CD8 signal peptide) DVVMTQSPSSLSASVGDRVTITCMASEDIYIRLAWYQQKPGNAPKLLIYAATSLETGVPSRFSGSGSGTDFTLTISSLQPEDFATYYCQQYWSSPWTFGGGTKVEIKGGGGSGGGGSGGGGSQVQLQESGPGLVKPSQTLSLTCTVSGYSITSDYTWNWIRQPPGNGLEWIGYITYSGSTSYNPSLKSRVLISVDTSKNQVSLKLSSVTAADTAVYYCARLGRRYTMDYWGQGTTVTVSSTRAKPTTTPAPRPPTPAPTIASQPLSLRPEACRPAAGGAVHTRGLDFACDIYIWAPLAGTCGVLLLSLVITLYCKRGRKKLLYIFKQPFMRPVQTTQEEDGCSCRFPEEEEGGCELRVKFSRSADAPAYQQGQNQLYNELNLGRREEYDVLDKRRGRDPEMGGKPRRKNPQEGLYNELQKDKMAEAYSEIGMKGERRRGKGHDGLYQGLSTATKDTYDALHMQALPPR", "values": [{"measurement": "binding result", "setting": "[1]", "result": "binds"}]}]}
